Source: patent US20240352121A1, “LAIR-1 AGONISTIC ANTIBODIES AND METHODS OF USE THEREOF” (NEXTCURE, INC., priority 2023, published 2024)

Experiments:
[1] = test system: human LAIR-1; assay: UT-140 LAIR-1 reporter cell activation (agonism); type: cell-based; details: upon engagement and crosslinking
Protocol: For cell binding assays, 5e4 UT-140 cells or mouse LAIR-1-transfected 293T cells per well were plated in 200 μL PBS in a 96-well round bottom plate, centrifuged for 4 minutes at 500×g for a single wash, and blocked for 10 minutes on ice with flow cytometry buffer (PBS+2% FBS+0.1 mM EDTA) containing 1:50 dilution of TruStain™ Fc block (Biolegend, San Diego, CA). Cells were subsequently stained for 30 min on ice with titrated concentrations of soluble AF647-labeled LAIR-1 mAb or AF647-labeled isotype control. Cells were then washed 3 times as previously described and binding was measured by flow cytometry using an Attune NXT flow cytometer. For reporter cell assays, flat-bottom 96-well TC plates were coated with 10 μg/mL per well of the indicated antibody in PBS or 2 μg/mL of ligand in 0.01N HCl overnight at 4° C. Wells were washed once with 200 μL sterile PBS. 5e4-to-1e5 cells per well were plated in 100 μL RPMIc containing titrated concentrations of LAIR-1 mAb or isotype control, then incubated overnight at 37° C. The next day, cells were transferred to a 96-well round-bottom plate, centrifuged for 4 minutes at 500×g, and resuspended in 200 μL of flow cytometry buffer. Cells were then centrifuged and resuspended for a total of 3 washes. GFP expression was measured by flow cytometry using an Attune NXT Flow Cytometer.

[2] = test system: MV4-11 cells; assay: MV4-11-luciferase cell-derived xenograft (CDX) model; type: in vivo, NSG mice
Protocol: 2e6 luciferase-expressing MV4-11-Luc or THP-1-Luc cells were suspended in sterile PBS and implanted into NSG mice via tail-vein injection. […] AML cell proliferation was monitored by weekly i.p. injection of D-Luciferin, immediately followed by IVIS bioluminescent imaging and quantification of luminescent signal. […] Imaging Perkin Elmore IVIS Lumina XRMS Series III.
NSG mice were injected with 2e6 THP-1 luciferase cells or 2e6 MV4-11-luciferase cells via tail vein injection. Leukemia progression was quantified by i.p. injection of 100 μL bioluminescent substrate and IVIS imaging 8 minutes post injection. Progression was assessed weekly staring on Day 7 post-challenge. 10 mg/kg mab treatment was performed by i.p injection starting on day 8 and continuing twice a week until the end of the study. For the subcutaneous engraftment model, NSG mice were subcutaneously injected on the right flank with 5e6 MV4-11-Luc-LAIR-1^OE cells. Mice were treated by weekly i.p. injection of 10 mg/kg mAb. Tumor growth was measured by calipers twice weekly until end point.

[3] = Pharmacokinetic study in balb/c mice; type: in vivo; details: 10 mg/kg intraperitoneal, blood serum
Protocol: Balb/c mice were intraperitoneally injected with 10 mg/kg h11B3. Mice were subsequently bled by cheek-vein puncture at the indicated time points. Blood serum was isolated by centrifugation at 2500 RCF in serum-collection tubes. Blood serum was tested for circulating h11B3 by Universal PK assay. Briefly, h11B3 in mouse serum was captured using a biotin-labeled anti-human IgG inside a nanoliter column of a Gyrolab CD. Alexa Fluor labeled anti-human IgG was used for detection. The quantitative dynamic range was (500-100,000) ng/ml (LLOQ-ULOQ). The standard curve and controls were prepared in pooled Balb/C serum (Biochemed). Standard curve, controls, and samples were diluted 1:10-fold (MRD) in buffer. Samples above the upper limit of quantitation (100,000 ng/mL) were brought within range by diluting them in Rexiip buffer. The laser-induced fluorescence detection technique detected the amount of analyte present in the sample. The standard curve signals were used to interpolate unknown sample concentrations. All samples were analyzed in duplicates and assigned an acceptance criteria (±20% CV and Bias). Gyrolab Evaluator software was used to perform 4PL with Y weighing non-linear regression to interpolate unknown sample concentrations.

[4] = test system: bone-marrow cells from healthy control donors; type: cell-based, human
Protocol: Cryopreserved AML bone-marrow cells or healthy donor CD34 cells were thawed and plated in 96 wells plates. Cells were engaged with the indicated concentrations of LAIR-1 mAb or isotype control for 30 min at room temperature. Subsequently, cells were diluted in IMDM with 2% FBS and mixed with semisolid methylcellulose-based medium (MethoCult H4435 Enriched, StemCell Technologies, Vancouver, Canada) which contains human cytokines (stem cell factor, IL-3, IL-6, EPO, G-CSF, GM-CSF). Then, between 1e4 and 2.5e5 LSCs, or, between 1e3 and 5e3 healthy donor CD34 cells per well were plated on 6-well SmartDishes (StemCell Technologies, Vancouver, Canada). The cell-loaded plates were incubated at 37° C. with 5% CO2 in air and ≥95% humidity. On day 14, colony formation was counted by STEMvision (StemCell Technologies, Vancouver, Canada), an automated and standardized colony counting instrument. The automated results were confirmed and edited manually by the STEMvision Colony Marker software.

[5] = test system: AML PBMCs; assay: ADCC assay, AML patient PBMCs with healthy donor NK cells; type: cell-based, human; details: 3:1 Target:Effector ratio, 4 hours
Protocol: ADCC was measured using the CytoTox 96® Non-Radioactive Cytotoxicity Assay (Promega) following the manufacturer's instructions. Briefly, AML patient PBMCs were mixed with healthy donor NK cells at a 3:1 Target:Effector ratio in complete RPMI containing the indicated concentration of soluble h11B3 or Fc-G1 isotype control. Mixed cells were incubated for 4 hours at 37 deg C. Test wells were run in quadruplicate. AML PBMCs-Donor #200018616, newly diagnosed/untreated. NK cells-Healthy Donor #83, isolated from PBMCs via StemCell Kit #17955 following manufacturer's instructions. CytoTox 96® Non-Radioactive Cytotoxicity Assay Promega Cat #G1780. % Cytotoxicity quantified by target cell LDH release. % Cytotoxicity=((Test Well LDH Release−Effector Cell Spontaneous Release−Target Cell Spontaneous Release)/(Target Cell Max Release−Target Cell Spontaneous Release))*100. Target Cells=AML PBMCs Donor #200018616; Effector Cells=NK cells isolated from healthy Donor #83 PBMCs. […] ADCC was measured using the Toxilight Bioluminescent Cytotoxicity Assay (Lonza)) following the manufacturer's instructions. […] Toxilight Bioluminescent Cytotoxicity Assay kit Lonza Cat #LT17-217. % Cytotoxicity quantified by target cell adenylate kinase release; ADCC calculated as described above. […]

Chain of human LAIR-1 (as listed by the source): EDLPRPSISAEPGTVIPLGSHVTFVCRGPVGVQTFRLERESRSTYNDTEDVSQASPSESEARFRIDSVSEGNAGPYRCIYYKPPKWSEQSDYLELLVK

B1: LAIR-1 mAb: humanized agonist anti-LAIR-1 mAb, IgG1 backbone; h11B3 VL-2 (SEQ ID NO: 16), h11B3 VH-3 (SEQ ID NO: 27) (antibody, V domains shown)
VH: EVQLVESGGGLVQPGGSLKLSCAASGFTFNTNAMYWVRQAPGKGLEWVGRIRSKSSNYATYYAASVKGRFTISRDDSKNTLYLQMNSLKTEDTAVYYCVRGGSGFFAYWGQGTLVTVSS
VL: DIQMTQSPSSLSASLGDRVTITCKASEDIYIRLAWYQQKPGKAPRLLISTATSLETGVPSRFSGSGSGTDYTFTISSLQPEDIATYYCQQYWSTPYTFGGGTRLEIK
modifications: IgG1 constant regions; Synthetic: h11B3 VH-3; Synthetic: h11B3 VL-2
human LAIR-1 signaling (agonist) [1]: capable of inducing human LAIR-1 signaling | leukemic cell growth in vivo ([2]; 10 mg/kg i.p. twice a week): inhibited leukemic cell growth | inhibition of LAIR-1 OE AML growth compared to LAIR-1 WT ([2]; MV4-11 LAIR-1 OE vs WT cells): more strongly inhibiting | tumor burden ([2]; biweekly dose of 10 mg/kg, flow cytometry of spleen and bone marrow): reduce tumor burden | AML cells in the blood, spleen, and bone marrow ([2]; mouse, in vivo): nearly absent | percentage of dead MV4-11 cells in blood, spleen, and bone-marrow ([2]; mouse, in vivo): increased | MV4-11 in vivo growth, monotherapy ([2]; physiologically relevant doses, 10 mg/kg NC525, 100 mg/kg VEN, 0.5 mg/kg AZA): significantly better activity than AZA monotherapy | Tmax [3]: 8 h | CFU formation [4]: no change | ADCC [5]: induces AML cell death through antibody dependent cytotoxicity (ADCC)
